In article PMC12675543 (Nature Communications, 2025):

Columns and labels:
Assay in all cases: SPR; biotinylated p62 constructs or His-MBP immobilised on streptavidin sensor chips (520-700 RU); VHHp62 injected in serial dilution; 50 mM Tris, 150 mM NaCl, 1 mM TCEP, 0.05% Tween-20, pH 7.4, 25 °C; kinetic 1:1 model
Conditions in all cases: both partners purified
[1] = molecular target: T1, His-MBP-p62(85-440)-Avi (Homo sapiens, UniProt Q13501, biotinylated)
T1 construct: also called immunogen; p62 lacking essential parts of the PB1 domain; source: recombinant; not shown: His, N-terminal, kept; MBP, N-terminal, kept; Avi, C-terminal, kept

[2] = molecular target: T2, p62(387-446)-Avi (Homo sapiens, UniProt Q13501, biotinylated)
T2 construct: p62 (SQSTM1), human, UBA domain, printed as residues 387-446; SPR construct; also called p62UBA; p62 ubiquitin associated domain; source: E. coli BL21 (DE3), purified (IMAC, 3C cleavage, SEC); not shown: His-MBP, N-terminal, cleaved; Avi, C-terminal, kept

[3] = molecular target: T3, p62(122-181)-Avi (Homo sapiens, UniProt Q13501, biotinylated)
T3 construct: p62 (SQSTM1), human, ZZ domain, residues 122-181; also called p62ZZ; p62 ZZ domain; source: E. coli BL21 (DE3), purified (IMAC, 3C cleavage, SEC); not shown: His-MBP, N-terminal, cleaved; Avi, C-terminal, kept

[4] = molecular target: T4, His-MBP-avi (Escherichia coli K12 (assumed), UniProt P0AEX9 = MBP, biotinylated)
T4 construct: Control surface protein in SPR; also called His-MBP tag; not shown: His, N-terminal, kept; Avi, C-terminal, kept

B1: VHHp62-His (6C10) (VHH)
VHH: EVQLVESGGGLVQPGGSLRLSCVASGFTFSNYWMYWVRQAPGKGLEWVSTINTGSGAAYYTSSVKGRFTISRDNAKNTLYLQMNSLKSEDTAVYYCATDLRGAQRGQGTQVTVSS
notes: anti-p62 VHH from immunised llamas, phage display clone 6C10; the AlphaFold2 model of VHHp62 had 121 residues; also called VHH 6C10; p62 single-domain antibody; source: Pichia pastoris (Komagataella phaffii), secreted, purified (IMAC, desalting); not shown: His, C-terminal, kept
Question: With B1 as the binder, how does the Kd [1] read?
Answer: 11 nM

Question: What about the Kd [2] of the same binder?
Answer: 36 nM

Question: Does B1 bind [3]?
Answer: no binding

Question: Does B1 bind [4]?
Answer: no binding
